A value given as a limit tells only on which side of the number the result lay.

In assay [1] the target is PSA in seminal fluid of normal men (human) (UniProt P07288). Briefly: MAA-Sepharose column, 5 ng purified PSA applied, 3.5 ng recovered in all fractions.
Assay [2] deals with PSA (prostate specific antigen) in serum of prostate cancer patient (human) (UniProt P07288). Briefly: WFA-Sepharose column, binding rate of PSA.
The target is the same in assay [3]. Briefly: WFA-Sepharose column, serum of prostate cancer patient 6; total PSA immunoassay of fractions.
Assay [4] shares this target. Briefly: WFA-Sepharose column, serum of prostate cancer patient 12; total PSA immunoassay of fractions.
Assay [5] has the same target. The experiment in a line: WFA-Sepharose column, serum of prostate cancer patient 15; total PSA immunoassay of fractions.
Assay [6] shares this target. The experiment in a line: UEA-I agarose column, binding rate of PSA.
For assay [7] the target is unchanged. Briefly: TJA-II-Sepharose column, binding rate of PSA.
The target in assay [8] is PSA (prostate specific antigen) in serum of prostatic hypertrophy patient (human) (UniProt P07288). The experiment in a line: TJA-II-Sepharose column, binding rate of PSA.
The target in assay [9] is PSA in seminal fluid of normal men (human) (UniProt P07288). Briefly: TJA-II-Sepharose column, binding rate of PSA.
Assay [10] addresses Sialidase-treated PSA in seminal fluid of normal men (human) (UniProt P07288). The experiment in a line: TJA-II-Sepharose column, sialidase-treated sample.
Assay [11] concerns the target Sialidase-treated PSA in serum of prostate cancer patient (human) (UniProt P07288). Briefly: TJA-II-Sepharose column, sialidase-treated sample.
Assay [12] has as its target Sialidase-treated PSA in serum of prostatic hypertrophy patient (human) (UniProt P07288). Briefly: TJA-II-Sepharose column, sialidase-treated sample.
The target of assay [13] is PSA (prostate specific antigen) in serum of prostate cancer patient (human) (UniProt P07288). Briefly: TJA-II-Sepharose column, 20 sera of prostate cancer patients.
In assay [14] the target is PSA (prostate specific antigen) in serum of prostatic hypertrophy patient (human) (UniProt P07288). The experiment in a line: TJA-II-Sepharose column, 20 sera of prostatic hypertrophy patients.
In assay [15] the target is PSA (prostate specific antigen) in serum of prostate cancer patient (human) (UniProt P07288). Briefly: TJA-II-Sepharose column, before sialidase treatment (Table 4 prints 16%).
Assay [16] has the same target. The experiment in a line: TJA-II-Sepharose column, serum of prostate cancer patient 1; total PSA immunoassay of fractions.
The target is the same in assay [17]. The experiment in a line: TJA-II-Sepharose column, serum of prostate cancer patient 2; total PSA immunoassay of fractions.
Assay [18] has the same target. The experiment in a line: TJA-II-Sepharose column, serum of prostate cancer patient 3; total PSA immunoassay of fractions.
The target is the same in assay [19]. The experiment in a line: TJA-II-Sepharose column, serum of prostate cancer patient 4; total PSA immunoassay of fractions.
The target is the same in assay [20]. Briefly: TJA-II-Sepharose column, serum of prostate cancer patient 5; total PSA immunoassay of fractions.
Assay [21] has the same target. Briefly: TJA-II-Sepharose column, serum of prostate cancer patient 6; total PSA immunoassay of fractions.
Assay [22] has the same target. The experiment in a line: TJA-II-Sepharose column, serum of prostate cancer patient 7; total PSA immunoassay of fractions.
The target is the same in assay [23]. Briefly: TJA-II-Sepharose column, serum of prostate cancer patient 8; total PSA immunoassay of fractions.
The target is the same in assay [24]. The experiment in a line: TJA-II-Sepharose column, serum of prostate cancer patient 9; total PSA immunoassay of fractions.
Assay [25] has the same target. The experiment in a line: TJA-II-Sepharose column, serum of prostate cancer patient 10; total PSA immunoassay of fractions.
For assay [26] the target is unchanged. Briefly: TJA-II-Sepharose column, serum of prostate cancer patient 11; total PSA immunoassay of fractions.
Assay [27] has the same target. The experiment in a line: TJA-II-Sepharose column, serum of prostate cancer patient 12; total PSA immunoassay of fractions.
The target is the same in assay [28]. The experiment in a line: TJA-II-Sepharose column, serum of prostate cancer patient 13; total PSA immunoassay of fractions.
For assay [29] the target is unchanged. Briefly: TJA-II-Sepharose column, serum of prostate cancer patient 14; total PSA immunoassay of fractions.
Assay [30] shares this target. The experiment in a line: TJA-II-Sepharose column, serum of prostate cancer patient 15; total PSA immunoassay of fractions.
Assay [31] concerns the target PSA (prostate specific antigen) in serum of prostatic hypertrophy patient (human) (UniProt P07288). The experiment in a line: TJA-II-Sepharose column, serum of prostatic hypertrophy patient 1; total PSA immunoassay of fractions.
For assay [32] the target is unchanged. Briefly: TJA-II-Sepharose column, serum of prostatic hypertrophy patient 2; total PSA immunoassay of fractions.
Assay [33] has the same target. Briefly: TJA-II-Sepharose column, serum of prostatic hypertrophy patient 3; total PSA immunoassay of fractions.
Assay [34] shares this target. Briefly: TJA-II-Sepharose column, serum of prostatic hypertrophy patient 4; total PSA immunoassay of fractions.
For assay [35] the target is unchanged. The experiment in a line: TJA-II-Sepharose column, serum of prostatic hypertrophy patient 5; total PSA immunoassay of fractions.
Assay [36] has the same target. The experiment in a line: TJA-II-Sepharose column, serum of prostatic hypertrophy patient 6; total PSA immunoassay of fractions.
For assay [37] the target is unchanged. The experiment in a line: TJA-II-Sepharose column, serum of prostatic hypertrophy patient 7; total PSA immunoassay of fractions.
For assay [38] the target is unchanged. The experiment in a line: TJA-II-Sepharose column, serum of prostatic hypertrophy patient 8; total PSA immunoassay of fractions.
Assay [39] shares this target. Briefly: TJA-II-Sepharose column, serum of prostatic hypertrophy patient 9; total PSA immunoassay of fractions.

Sequence of Maackia amurensis agglutinin (P0DKL3 30-278): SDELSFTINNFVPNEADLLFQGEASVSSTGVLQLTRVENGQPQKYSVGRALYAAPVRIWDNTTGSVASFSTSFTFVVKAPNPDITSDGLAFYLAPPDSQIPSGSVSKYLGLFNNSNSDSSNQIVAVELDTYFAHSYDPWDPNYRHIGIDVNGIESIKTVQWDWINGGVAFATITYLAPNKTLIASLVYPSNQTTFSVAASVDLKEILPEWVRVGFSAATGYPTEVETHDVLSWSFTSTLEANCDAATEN

In assay [1], Maackia amurensis agglutinin gave a percent considered bound to the column of 30%.
As for Wisteria floribunda agglutinin, the binding rate in assay [2] worked out at 11%. The WFA binding ratio is 9.4% in assay [3], 7.5% in [4] and 4.2% in assay [5]. In addition, the values for the WFA-bound PSA in serum sample in [3], in assay [4] and in assay [5] were 328 ng/mL, 3.91 ng/mL and 0.49 ng/mL, respectively.
With “Ulex europaeus agglutinin-1 (from UniProt P22972 1-243)”, in assay [6], the binding rate was 5%.
For the substance Trichosanthes japonica agglutinin-II, the binding rate was 16% in assay [7]; 2% in assay [8]; 2% in assay [9]; 8.4% in [10]; 59% in [11]; 2% in [12]. Also, the binding rate in [15] stood at 11%. Besides, the results for the TJA-II binding rate in [13] and in assay [14] were over 2% and under 2%, respectively. The TJA-II binding ratio came to 6.4% in [16]; 5% in [17]; 3% in [18]; 4.5% in assay [19]; 7% in assay [20]; 10.8% in assay [21]. The TJA-II binding ratio amounted to 8.2% in assay [22]; 21% in [23]; 14% in assay [24]; 4.6% in [25]; 23% in [26]; 8% in assay [27]. Also, the TJA-II binding ratio in assay [28] was 5%; in assay [29], 4%; in assay [30], 5%; in assay [31], 1.2%; in assay [32], under 0.05%; in assay [33] it was 0.2%. Also, the TJA-II binding ratio in assay [34] was 0.6%; in assay [35] it was 1.5%; in [36], 1.8%; in assay [37], under 0.05%; in [38], 1%; in assay [39] it was under 0.05%. Besides, the TJA-II-bound PSA in serum sample in assay [16] is 128 ng/mL; in [17] it was 6.6 ng/mL; in assay [18], 2.4 ng/mL; in assay [19] it was 9.5 ng/mL; in assay [20], 6.3 ng/mL; in [21] it was 388 ng/mL. The TJA-II-bound PSA in serum sample in [22] stood at 5.58 ng/mL; in assay [23], 0.9 ng/mL; in [24] it was 0.84 ng/mL; in assay [25], 0.46 ng/mL; in assay [26], 1.04 ng/mL; in assay [27], 4.3 ng/mL. Moreover, the TJA-II-bound PSA in serum sample in [28] was 0.24 ng/mL; in [29] it was 0.85 ng/mL; in [30] it was 0.61 ng/mL; in [31], 0.2 ng/mL; in assay [33], 0.02 ng/mL; in [34], 0.04 ng/mL. Further, the TJA-II-bound PSA in serum sample worked out at 0.12 ng/mL in [35], 0.17 ng/mL in assay [36] and 0.09 ng/mL in assay [38].

The values are drawn from patent US20120282612A1.
